experiment: soluble on expression in E. coli; label from the status in PepcDB or PDB records

Sequence | soluble on expression in E. coli
MGSDKIHHHHHHMKLAKKYYAVRKGRVPGIYKTWKEAEEQVKGFPGAEYKSFERLEDAKAYMEGKNECICPELDTETMIAYVDGSYDEVCGSGIVLCYRGKKEEYYFWTNIEEFKDSRNITGEIMAALFAMDYALKKGARKLVLRYDLEGLEKWATEEYRTNKLVTKVYRHYYRKFCQMGLKVVFEKIKSHSGNFCNDEADSLAKKASKKESNVEWMPEDFESIIRTLTKKGGCL | not soluble
MGSDKIHHHHHHMKLCSVTKIWDKSAHNAFTDLALYRGKLYCVFREASAHVSPDGALRILCTDNDGQDWHSVALIEADFADLRDGKLVIEGDSLFLFGGAAMHEGKGEGMRSYCWQSDDGIHWSAPRALVKEREWLWRITPHKGYFYGIAYYCHEHDGYAALYKSDANTDFYPLVEKLSQAGYVNESGLVFDEEDKAICLLRRDPLWLTDERALLGESAPPYTQWHWQTANCRVGGPVTFLYQGQLYGVVRLYDGRVRTALVAIDRQSAQIAELLTLPSGGDTSYAGVVLSDNILMVSYYSSHEGDCAIYFAKIAL | not soluble
MGSDKIHHHHHHMKLETIDYRAADSAKRFVESLRETGFGVLSNHPIDKELVERIYTEWQAFFNSEAKNEFMFNRETHDGFFPASISETAKGHTVKDIKEYYHVYPWGRIPDSLRANILAYYEKANTLASELLEWIETYSPDEIKAKFSIPLPEMIANSHKTLLRILHYPPMTGDEEMGAIRAAAHEDINLITVLPTANEPGLQVKAKDGSWLDVPSDFGNIIINIGDMLQEASDGYFPSTSHRVINPEGTDKTKSRISLPLFLHPHPSVVLSERYTADSYLMERLRELGVL | not soluble
MGSDKIHHHHHHMKLIDLHVHSYHSDGVLAPAVLVAMAAERGLASLAIADHDAVDGIDEAVAEGVRLGVDVIPAVELSVELGRFSDLHILGYCIDHHDPAFRDKLAGFRSARDNRGKAILEKINRRLLHSRKAPLSYDEVLSMAGGAVGRPHIGRVLVDNGYARDMEDAFRRYLIPCNVPKRYMPAGEAIAEIRRIGGVSVLAHPPTITDDRRRLRQVVEQLAQLGLDGLEVFNNLCFKDDMLYLERLAEEFGLLMTGGSDFHGFEDDVELGRGRGGLAVAHSLAEKVKELAAQRKHSHA | not soluble
MGSDKIHHHHHHMKLNFTGHTDPGLIRSNNQDDYYIDPEGRFFIVADGMGGHAGGEEASRIATREIKAYLTANWDVSKPSSELLEQALWQANEAILQDQQNHPERADMGTTAVVVIFRNDEQWCAHVGDSRLYRLRETQLEQVTEDHTWVARAIKIGDITAEEARVHPFRHVLSRCLGREDLHQVDVQPLDTKIGDRLLLCSDGLTEELPDQKIAHNLQINSLLDQSALSLVEDAKEQGGHDNITVVIVALE | not soluble
MGSDKIHHHHHHMKMLVGKIPSELLAKILEKLKPGDKVIVGPKVGIDATAIDFGDYVLVASTDPITGTEEKIGFYAVNINANDVATFGARPKWFLVTILLPEGSEFNDVITIMDEVREVAEGMGISIVGGHTEVTPGLKKPIVVGTMLGEVEKENLVVPNPRPGDAIILTKGAGIEGTSIIAHEREEELKGVFGSNFVERAKAFINEISIVREALLSREFATAMHDPTEGGIANGLHEMADINGLGFRIFANKVIIREETRKICHFYDLDPLALISSGALLISTPRDHAKFLIERLLSHGIQASIIGEFLAEKKRVIIENGAERPLKRPESDELWKVV | not soluble
MGSDKIHHHHHHMKNAMLVLCVFLGLSACADRDLMPIVPEAVEIGTPYTVFSTTTRAQEADGTYGFRRSEQLRMMEMTVTIPPNHSPGELSYRYKNPDPHKNFAIAEELPVASVSDLRARFLREQRENNWPLREVTIFVHGYNSTHPETAYRSAQMAHDVELPGSLVMYSWPSRGRAFGYAYDIDSMLFARDGLEETVRRVKQAGAERIILVAHSMGTALAMEMLRQADLRNPGWAARTLNGGVILISPDLDVDVFESQMMDLKQVPQPFGVMVSEKDHILNISGRLRGTSEGERLGNIKSAERLMKWPIEVIDLTAFNADAASGHFVAATSPSLLAVIRSASNVSRLFGPVDPTLFQQILPQSQTIVTDHGKLMLARQQRQEER | not soluble
MGSDKIHHHHHHMKNRKTPMKEQSPESRRRNFEEVALGYTLEEALEEAQRCLQCPTHPCVSGCPVEIDIPGFIRKLRDGKLEESYRILKSYNNLPAVCGRVCPQEVQCESRCVVGKMKDSEPVAIGRLERFVADWAAENLEEDVKPLAGSKKEKVAVVGSGPAGLTAAADLAKMGYHVDIFEAFHKPGGVLVYGIPEFRLPKRIVEREVSYIRKLGVNFHLNTVVGKTVKVKELLSEYDAVFIGTGAGTPKFMGIPGTNLNGVYSANEFLTRVNLMKAYLFPEYDTPIRVGKKVAVIGAGNTAMDAARSALRLGAEKVYIVYRRTEREMPARREEYHHALEEGIEFLWLTLPIRYIGDANGNVEAMECVRMELKEADGSGRPRPVPIEGSNFVLEVDMVIEAIGQGPNRVLLSEFPGLELNERGYIKADEDTGATSVKGVFAGGDIVTGAATVIKAMGAGKKAAQFIHSYLTGEWNPWQK | not soluble
MGSDKIHHHHHHMKNTTLSSRKHRSLETKKKLLHSGYIVFINNGFQKTTITQIIKHAETGYGTAYVYFKNKDDLLTVLMEDVMNQFYDIAERSFSPQTKEEARNMIQNQVRAFLQLAEKERAILQVVEEAIGLSKEIRQKWDEIRERFINSITQDITYSQENGLAHPELNKETVARAWFAMNEIFLWTIVKNDKKLELEEIVHTLTEMYTTGLYK | not soluble
MGSDKIHHHHHHMKPEAYPHPVKVVELVETHISWVLLTGSYAYKLKKAVHLDFVDATTLKQRLHFCQEELRLNRRLAPDLYLGVTRILESVDGAKVLDENFELNDPSTKGVVDVAVKMRQFPVSRLLSVYLSDGVLKTESLKRLAFELAGFHLSVKTASADGDFGGFDAVINPVHANLRVLDQLTLTEPLELWLEEHRAWIKSIQPELAFRFKQRLNAGAIRECHGDLHVGNIHLNNDESLEVFDAIDFNPSLRWIDPISEMAFLVMDFEVHDHQGDAMVILNEWLEHTGDYKALDLWPWYSAYRALVRAKVSGLQWQQLCSQSQHHSVDQQHLQRLLKDLNLYIQRAREVQQTKSAGIVLMHGLSGSGKSFLSEQLYQQLPAVRLRSDIERQRAFGRRPLHKLLGFEKGSMTSVGIKPLFQGDPYRPEVTQWLFDQCLPALTQSCLSSGYTTIVDATFLRERERQRMFVLARQQGCPIAIVACECSDFTAQERIATRMGIGTDPSEADLSVRELQKAWIEPLTTDEQDLTVRFTEKTPISIGLERLRVLLNP | not soluble
MGSDKIHHHHHHMKQIPLAERMRPKTLADYVGQQHLIGSGAVLRQMIEQGQTPSMILWGPPGVGKTTLAEIIAHEVDAPFYTLSAVSSGVKEVREVIADIESNRGNLFDKGGRAILFIDEIHRFSKSQQDSLLAAVERGIVTLIGATTENPSFEVIRPLLSRCQVYVLKPQSDEDLLLLAHRAIDRDELLAAKHPVLEETEALLLYAGGDARKLLNILDLLATSEVEDRLVITNEKIRQRLQENPAAFDKGGELHYDIASAFIKSIRGSDPDAAIYWLARLIDGGEEPSFIARRLIISASEDIGLANPNAMLIAMACAEALDRIGWPEGRIPLAEATIYLATSEKSNSAYLAIDSALEYVRQSGNLPVPLHLRNAPTRLMADLDYGKGYKYSHDFPEHFVSQQYLPDKAANTSFWTPQMHTVHEAKLGERMKRWWKREKSQKDTAE | not soluble
MGSDKIHHHHHHMKQLFDNVSAMCSKLTTKKYSTSFSLGIHFLHKKLHDPVYAIYGFVRFADEIVDSFHGYDKKRLMAQFRRDTAFALQDKISLNPILNSFQHVVHTYNIEWELIDTFLKSMEMDLDQSAHNEQSYKEYIIGSAEVVGLMCLRVFVKGDVDMYEKQKPHAMSLGAAFQKVNFLRDAKEDFDSLGRTYFPDVSMEKFDRHIKQNIESDIEKDFQHALIGIKQLPAESRLGVYLAYIYYKNLFHKIKSIPPERMLKERIRIPNLNKFALLFQCYFRNQFNIL | not soluble
MGSDKIHHHHHHMKRKTKLDKKSKWVLDMKFGVSSLVFLPESLTSSMEKIAEHNFDAWEIVCEGTHYLSPKNIKYLMELRDRYEVEIVVHAPFSDLNPASMNERVRKLTVECIRDAIEGAFELDSEVVVVHPGYIPELWSNYVSEILDNNFSTLSEIVEIAEDYGIKIGLENMPNFRGVLGITPESLLEIVKDIDSKNLGITFDIGHANTAGNPAEFVEKLQNIGIGIIHVHAHDNNGYDDEHLKIGEGNINFIEVLEKLKEIGYDGVISIENKNIRDAVKSKEILKEYLEIVNEKVAEKEKIEE | not soluble
MGSDKIHHHHHHMKSLGRHLVAEFYECDREVLDNVQLIEQEMKQAAYESGATIVTSTFHRFLPYGVSGVVVISESHLTIHTWPEYGYAAIDLFTCGEDVDPWKAFEHLKKALKAKRVHVVEHERGRYDEIGIPEDSPHKAAV | soluble
MGSDKIHHHHHHMKTEIVEIESECLKDNFLKDDWKRQILVYRPDDAEGGLPLFIELAGTNWRPRTHNKFSLIIEKLFSSGLKAVVLNPNFSTRYNMNQYLNSPAVGSYEDFIVKELIPYFKDKYGTDHTALFGKSSGGFGSYTLAARHPDIIDGFADHFGDSCFFYLYADDMAAAFRYIQRHGKSESVKMLTSHMPSDDEMKVLNVIGSSAFYSPDMNDVNGFDLPFDEDTGELIEDVWQRWVQFDPAKNVLKYSGALKKMKAIYLDVGTNDEYKLYIGTRALHKKLGLANIDHYYEEFNGGHFGNSERYLYSLPFLYRKLNDTA | not soluble
MGSDKIHHHHHHMKTERILGALYGQALGDAMGMPSELWPRSRVKAHFGWIDRFLPGPKENNAACYFNRAEFTDDTSMALCLADALLEREGKIDPDLIGRNILDWALRFDAFNKNVLGPTSKIALNAIRDGKPVAELENNGVTNGAAMRVSPLGCLLPARDVDSFIDDVALASSPTHKSDLAVAGAVVIAWAISRAIDGESWSAIVDSLPSIARHAQQKRITTFSASLAARLEIALKIVRNADGTESASEQLYQVVGAGTSTIESVPCAIALVELAQTDPNRCAVLCANLGGDTDTIGAMATAICGALHGVNAIDPALKAELDAVNQLDFNRYATALAKYRQQREAV | not soluble
MGSDKIHHHHHHMKTLAQNIQEKLKASGLTQKELAERANISQVMVHKLISGKAKESSKLVAIAGVLGCTAEELMYGLEKHVPTSNAEWAGPMETWDSNTPLNDDEVEIPFYMEVELAAGHGIAEASEYHGPKLRFAKSTLRKSSVDPTNAACVRVSGNSMEPVLPSGSTVGVDTSQTDVIDGKMYAINHDGMLRVKTLYKLPGGGLRLRSYNIDEWPDERYEGEAIKQIKIIGKVFWYSVLM | not soluble
MGSDKIHHHHHHMKVCILGATGRVGSNIIKLALKDSVEVTALARDSSRVEINHERLRVIEGNVLNENDIKKAIEGSDIVISALGTDQNGTLAKSMPQIIKKMEEEGVRKIITIGTAGILQARTNLNLYRFQSTESKRKSTTAAEEHLAAYKILSSSNLCWTVVCPTHLIDGDVTGIYRTEKDVLPEGGAKITVGDTAQFTWNLCSKNKYENSRVGISY | not soluble
MGSDKIHHHHHHMKVDWDHLQFFLVLARTKTLTNAARIIGVEHSTVARRIQALELALGTTLFKREATGYELTLEGMALVPRVEQMEQAFLQIEKPHQPLQGRVRIGTPEGFGTAFLARLLAEFSIQYPLLTIDLIPVPKMIKLSHREADIVVSIERPTSGPYIITRLSDYCLKIYGSQNYLAQNPPIRRLEDLTQHRFVNYIDDLVYSPELYCLERLPLKLNANFRSSSILAQQIAVSAGAGLAILPKFLADDKPELEEVLEQQVRFTHTFWMLTFVDLQHEPRIKLVWDYLRKQADKYQHLLVD | not soluble

Source: the DeepSol protein solubility set
